{
  "source": "patent US20030194400",
  "proteins": {"B1": {"name": "Factor VIIa (protein)", "chain": "ANAFLEELRPGSLERECKEEQCSFEEAREIFKDAERTKLFWISYSDGDQCASSPCQNGGSCKDQLQSYICFCLPAFEGRNCETHKDDQLICVNENGGCEQYCSDHTGTKRSCRCHEGYSLLADGVSCTPTVEYPCGKIPILEKRNASKPQGRIVGGKVCPKGECPWQVLLLVNGAQLCGGTLINTIWVVSAAHCFDKIKNWRNLIAVLGEHDLSEHDGDEQSRRVAQVIIPSTYVPGTTNHDIALLRLHQPVVLTDHVVPLCLPERTFSERTLAFVRFSLVSGWGQLLDRGATALELMVLNVPRLMTQDCLQQSRKVGDSPNITEYMFCAGYSDGSKDSCKGDSGGPHATHYRGTWYLTGIVSWGQGCATVGHFGVYTRVSQYIEWLQKLMRSEPRPGVLLRAPFP"}},
  "key": {"[1]": {"molecular_target": "fibronectin-Tissue Factor (Fn-TF) fusion protein"}, "[2]": {"molecular_target": "T1, soluble Tissue Factor extracellular domain TF1-218", "T1 chain": "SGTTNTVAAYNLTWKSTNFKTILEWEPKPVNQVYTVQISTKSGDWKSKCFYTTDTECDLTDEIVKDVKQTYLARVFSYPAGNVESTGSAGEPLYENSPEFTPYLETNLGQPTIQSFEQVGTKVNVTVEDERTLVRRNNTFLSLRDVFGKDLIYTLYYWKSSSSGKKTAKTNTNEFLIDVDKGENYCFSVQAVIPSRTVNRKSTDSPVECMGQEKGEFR"}},
  "data": [
    {"protein": "B1", "values": [
      {"measurement": "Factor VIIa amidolytic activity (chromozym t-PA hydrolysis)", "setting": "[1]", "value": "Very little difference in amidolytic activity is discernable for Tissue Factor and Fn-TF except at high concentrations"},
      {"measurement": "Factor VIIa amidolytic activity (chromozym t-PA hydrolysis)", "setting": "[2]", "value": "Very little difference in amidolytic activity is discernable for Tissue Factor and Fn-TF except at high concentrations"}
    ]}
  ]
}
